From patent US20210139548A1 (published 2021)
*1 amine or outer side, *2 acyl side, *3 side chain or, on linkers, in order; H or OH if unused. Side-chain parts run from the residue outwards. The star is where a group is joined. C18 diacid = O=C(O)CCCCCCCCCCCCCCCCC(=O)*; γGlu = O=C(O)[C@H](CCC(=O)[*:2])N[*:1]; Isovaleryl = CC(C)CC(=O)*; AEEA = NCCOCCOCC(=O)O

T1: human neuropeptide Y2 receptor (human, UniProt P49146 1-381)
T1 construct: whole, on cells; also called hNPY2 receptor; hNPY2-R
T1 sequence (looked up): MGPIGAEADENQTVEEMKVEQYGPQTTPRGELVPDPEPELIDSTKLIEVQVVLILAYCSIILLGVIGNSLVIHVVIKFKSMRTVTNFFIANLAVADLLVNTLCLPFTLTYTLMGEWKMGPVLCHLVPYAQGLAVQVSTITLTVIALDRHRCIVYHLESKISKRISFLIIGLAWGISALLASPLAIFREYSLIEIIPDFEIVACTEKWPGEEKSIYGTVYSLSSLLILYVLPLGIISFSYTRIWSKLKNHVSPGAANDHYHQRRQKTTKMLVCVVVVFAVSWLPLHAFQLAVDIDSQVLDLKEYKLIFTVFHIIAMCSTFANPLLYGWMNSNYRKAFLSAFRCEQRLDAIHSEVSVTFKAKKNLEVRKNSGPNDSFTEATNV


Target: T1, human neuropeptide Y2 receptor
Test: radioligand competition (125I-PYY(1-36)), hNPY2R membranes
Outline: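 Commercial human Y2 receptor membranes (0.5 μg protein/well) were incubated with peptide for 2 h at room temperature in 50 mM HEPES, 5 mM MgCl₂, 1 mM CaCl₂, pH 7.4, with 0.2% ovalbumin. Bound radioligand was separated on PEI-soaked GF/C filters and counted by scintillation, and IC₅₀ came from nonlinear sigmoidal regression.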

Binder	Ki
Isovaleryl-APAK([AEEA-AEEA-γGlu-C18 diacid])PEEDASPEELQQYYVSLRHYYNWLTRQRY-NH2 (SMILES CC(C)CC(=O)N[C@@H](C)C(=O)N1CCC[C@H]1C(=O)N[C@@H](C)C(=O)N[C@@H](CCCCNC(=O)COCCOCCNC(=O)COCCOCCNC(=O)CC[C@H](NC(=O)CCCCCCCCCCCCCCCCC(=O)O)C(=O)O)C(=O)N1CCC[C@H]1C(=O)N[C@@H](CCC(=O)O)C(=O)N[C@@H](CCC(=O)O)C(=O)N[C@@H](CC(=O)O)C(=O)N[C@@H](C)C(=O)N[C@@H](CO)C(=O)N1CCC[C@H]1C(=O)N[C@@H](CCC(=O)O)C(=O)N[C@@H](CCC(=O)O)C(=O)N[C@@H](CC(C)C)C(=O)N[C@@H](CCC(N)=O)C(=O)N[C@@H](CCC(N)=O)C(=O)N[C@@H](Cc1ccc(O)cc1)C(=O)N[C@@H](Cc1ccc(O)cc1)C(=O)N[C@H](C(=O)N[C@@H](CO)C(=O)N[C@@H](CC(C)C)C(=O)N[C@@H](CCCNC(=N)N)C(=O)N[C@@H](Cc1c[nH]cn1)C(=O)N[C@@H](Cc1ccc(O)cc1)C(=O)N[C@@H](Cc1ccc(O)cc1)C(=O)N[C@@H](CC(N)=O)C(=O)N[C@@H](Cc1c[nH]c2ccccc12)C(=O)N[C@@H](CC(C)C)C(=O)N[C@H](C(=O)N[C@@H](CCCNC(=N)N)C(=O)N[C@@H](CCC(N)=O)C(=O)N[C@@H](CCCNC(=N)N)C(=O)N[C@@H](Cc1ccc(O)cc1)C(N)=O)[C@@H](C)O)C(C)C) [Compound 138]	1.42 nM
Isovaleryl-APEK([AEEA-AEEA-γGlu-C18 diacid])AEEDASPEELQQYYVSLRHYYNWLTRQRY-NH2 (SMILES CC(C)CC(=O)N[C@@H](C)C(=O)N1CCC[C@H]1C(=O)N[C@@H](CCC(=O)O)C(=O)N[C@@H](CCCCNC(=O)COCCOCCNC(=O)COCCOCCNC(=O)CC[C@H](NC(=O)CCCCCCCCCCCCCCCCC(=O)O)C(=O)O)C(=O)N[C@@H](C)C(=O)N[C@@H](CCC(=O)O)C(=O)N[C@@H](CCC(=O)O)C(=O)N[C@@H](CC(=O)O)C(=O)N[C@@H](C)C(=O)N[C@@H](CO)C(=O)N1CCC[C@H]1C(=O)N[C@@H](CCC(=O)O)C(=O)N[C@@H](CCC(=O)O)C(=O)N[C@@H](CC(C)C)C(=O)N[C@@H](CCC(N)=O)C(=O)N[C@@H](CCC(N)=O)C(=O)N[C@@H](Cc1ccc(O)cc1)C(=O)N[C@@H](Cc1ccc(O)cc1)C(=O)N[C@H](C(=O)N[C@@H](CO)C(=O)N[C@@H](CC(C)C)C(=O)N[C@@H](CCCNC(=N)N)C(=O)N[C@@H](Cc1c[nH]cn1)C(=O)N[C@@H](Cc1ccc(O)cc1)C(=O)N[C@@H](Cc1ccc(O)cc1)C(=O)N[C@@H](CC(N)=O)C(=O)N[C@@H](Cc1c[nH]c2ccccc12)C(=O)N[C@@H](CC(C)C)C(=O)N[C@H](C(=O)N[C@@H](CCCNC(=N)N)C(=O)N[C@@H](CCC(N)=O)C(=O)N[C@@H](CCCNC(=N)N)C(=O)N[C@@H](Cc1ccc(O)cc1)C(N)=O)[C@@H](C)O)C(C)C) [Compound 144]	8.92 nM
Isovaleryl-APEK([AEEA-AEEA-γGlu-C18 diacid])PEEAASPEELQRYYVSARHYYNWLTRQRY-NH2 (SMILES CC(C)CC(=O)N[C@@H](C)C(=O)N1CCC[C@H]1C(=O)N[C@@H](CCC(=O)O)C(=O)N[C@@H](CCCCNC(=O)COCCOCCNC(=O)COCCOCCNC(=O)CC[C@H](NC(=O)CCCCCCCCCCCCCCCCC(=O)O)C(=O)O)C(=O)N1CCC[C@H]1C(=O)N[C@@H](CCC(=O)O)C(=O)N[C@@H](CCC(=O)O)C(=O)N[C@@H](C)C(=O)N[C@@H](C)C(=O)N[C@@H](CO)C(=O)N1CCC[C@H]1C(=O)N[C@@H](CCC(=O)O)C(=O)N[C@@H](CCC(=O)O)C(=O)N[C@@H](CC(C)C)C(=O)N[C@@H](CCC(N)=O)C(=O)N[C@@H](CCCNC(=N)N)C(=O)N[C@@H](Cc1ccc(O)cc1)C(=O)N[C@@H](Cc1ccc(O)cc1)C(=O)N[C@H](C(=O)N[C@@H](CO)C(=O)N[C@@H](C)C(=O)N[C@@H](CCCNC(=N)N)C(=O)N[C@@H](Cc1c[nH]cn1)C(=O)N[C@@H](Cc1ccc(O)cc1)C(=O)N[C@@H](Cc1ccc(O)cc1)C(=O)N[C@@H](CC(N)=O)C(=O)N[C@@H](Cc1c[nH]c2ccccc12)C(=O)N[C@@H](CC(C)C)C(=O)N[C@H](C(=O)N[C@@H](CCCNC(=N)N)C(=O)N[C@@H](CCC(N)=O)C(=O)N[C@@H](CCCNC(=N)N)C(=O)N[C@@H](Cc1ccc(O)cc1)C(N)=O)[C@@H](C)O)C(C)C) [Compound 141]	3.12 nM

Continued, values first:

Ki	Binder
1.55 nM	Isovaleryl-APEK([AEEA-AEEA-γGlu-C18 diacid])PEEDSSPEEIQRYYVSLRHYYNWLTRQRY-NH2 (SMILES CC[C@H](C)[C@H](NC(=O)[C@H](CCC(=O)O)NC(=O)[C@H](CCC(=O)O)NC(=O)[C@@H]1CCCN1C(=O)[C@H](CO)NC(=O)[C@H](CO)NC(=O)[C@H](CC(=O)O)NC(=O)[C@H](CCC(=O)O)NC(=O)[C@H](CCC(=O)O)NC(=O)[C@@H]1CCCN1C(=O)[C@H](CCCCNC(=O)COCCOCCNC(=O)COCCOCCNC(=O)CC[C@H](NC(=O)CCCCCCCCCCCCCCCCC(=O)O)C(=O)O)NC(=O)[C@H](CCC(=O)O)NC(=O)[C@@H]1CCCN1C(=O)[C@H](C)NC(=O)CC(C)C)C(=O)N[C@@H](CCC(N)=O)C(=O)N[C@@H](CCCNC(=N)N)C(=O)N[C@@H](Cc1ccc(O)cc1)C(=O)N[C@@H](Cc1ccc(O)cc1)C(=O)N[C@H](C(=O)N[C@@H](CO)C(=O)N[C@@H](CC(C)C)C(=O)N[C@@H](CCCNC(=N)N)C(=O)N[C@@H](Cc1c[nH]cn1)C(=O)N[C@@H](Cc1ccc(O)cc1)C(=O)N[C@@H](Cc1ccc(O)cc1)C(=O)N[C@@H](CC(N)=O)C(=O)N[C@@H](Cc1c[nH]c2ccccc12)C(=O)N[C@@H](CC(C)C)C(=O)N[C@H](C(=O)N[C@@H](CCCNC(=N)N)C(=O)N[C@@H](CCC(N)=O)C(=O)N[C@@H](CCCNC(=N)N)C(=O)N[C@@H](Cc1ccc(O)cc1)C(N)=O)[C@@H](C)O)C(C)C) [Compound 145]
1.17 nM	Isovaleryl-APEK([AEEA-AEEA-γGlu-C18 diacid])PPEEASPEELQRYYVSLRHYYNWLTRQRY-NH2 (SMILES CC(C)CC(=O)N[C@@H](C)C(=O)N1CCC[C@H]1C(=O)N[C@@H](CCC(=O)O)C(=O)N[C@@H](CCCCNC(=O)COCCOCCNC(=O)COCCOCCNC(=O)CC[C@H](NC(=O)CCCCCCCCCCCCCCCCC(=O)O)C(=O)O)C(=O)N1CCC[C@H]1C(=O)N1CCC[C@H]1C(=O)N[C@@H](CCC(=O)O)C(=O)N[C@@H](CCC(=O)O)C(=O)N[C@@H](C)C(=O)N[C@@H](CO)C(=O)N1CCC[C@H]1C(=O)N[C@@H](CCC(=O)O)C(=O)N[C@@H](CCC(=O)O)C(=O)N[C@@H](CC(C)C)C(=O)N[C@@H](CCC(N)=O)C(=O)N[C@@H](CCCNC(=N)N)C(=O)N[C@@H](Cc1ccc(O)cc1)C(=O)N[C@@H](Cc1ccc(O)cc1)C(=O)N[C@H](C(=O)N[C@@H](CO)C(=O)N[C@@H](CC(C)C)C(=O)N[C@@H](CCCNC(=N)N)C(=O)N[C@@H](Cc1c[nH]cn1)C(=O)N[C@@H](Cc1ccc(O)cc1)C(=O)N[C@@H](Cc1ccc(O)cc1)C(=O)N[C@@H](CC(N)=O)C(=O)N[C@@H](Cc1c[nH]c2ccccc12)C(=O)N[C@@H](CC(C)C)C(=O)N[C@H](C(=O)N[C@@H](CCCNC(=N)N)C(=O)N[C@@H](CCC(N)=O)C(=O)N[C@@H](CCCNC(=N)N)C(=O)N[C@@H](Cc1ccc(O)cc1)C(N)=O)[C@@H](C)O)C(C)C) [Compound 142]
3.83 nM	Isovaleryl-APEK([AEEA-AEEA-γGlu-C18 diacid])PEEESSPEELQRYYVSLRHYYNWLTRQRY-NH2 (SMILES CC(C)CC(=O)N[C@@H](C)C(=O)N1CCC[C@H]1C(=O)N[C@@H](CCC(=O)O)C(=O)N[C@@H](CCCCNC(=O)COCCOCCNC(=O)COCCOCCNC(=O)CC[C@H](NC(=O)CCCCCCCCCCCCCCCCC(=O)O)C(=O)O)C(=O)N1CCC[C@H]1C(=O)N[C@@H](CCC(=O)O)C(=O)N[C@@H](CCC(=O)O)C(=O)N[C@@H](CCC(=O)O)C(=O)N[C@@H](CO)C(=O)N[C@@H](CO)C(=O)N1CCC[C@H]1C(=O)N[C@@H](CCC(=O)O)C(=O)N[C@@H](CCC(=O)O)C(=O)N[C@@H](CC(C)C)C(=O)N[C@@H](CCC(N)=O)C(=O)N[C@@H](CCCNC(=N)N)C(=O)N[C@@H](Cc1ccc(O)cc1)C(=O)N[C@@H](Cc1ccc(O)cc1)C(=O)N[C@H](C(=O)N[C@@H](CO)C(=O)N[C@@H](CC(C)C)C(=O)N[C@@H](CCCNC(=N)N)C(=O)N[C@@H](Cc1c[nH]cn1)C(=O)N[C@@H](Cc1ccc(O)cc1)C(=O)N[C@@H](Cc1ccc(O)cc1)C(=O)N[C@@H](CC(N)=O)C(=O)N[C@@H](Cc1c[nH]c2ccccc12)C(=O)N[C@@H](CC(C)C)C(=O)N[C@H](C(=O)N[C@@H](CCCNC(=N)N)C(=O)N[C@@H](CCC(N)=O)C(=O)N[C@@H](CCCNC(=N)N)C(=O)N[C@@H](Cc1ccc(O)cc1)C(N)=O)[C@@H](C)O)C(C)C) [Compound 139]
